Test results published in the DeepSol protein solubility set.

Experiment: soluble on expression in E. coli; label from the status in PepcDB or PDB records

| Sequence | soluble on expression in E. coli |
| --- | --- |
| MLSETELRALKKLSTTTSRVVGDSTLALPSNVKLSKGEVEKIAVTKKEMFDELAQCNLPTIELITREHTFNGDVIRFAAWLFLMNGQKLMIANNVAVRMGMQYATNLAGNNVKITYVTSNNVVKLGHIAAGVLANPYSNKGSGLFITYEHNLISNQIETGKVCVLFITSLSTTASSTNSFAYSACSVPIEDWDFNMIKLTAETSCASLTAMTNLVNSLVPGERTRPVGLYVDIPGVTVTTSASSGSLPLTTIPAVTPLIFSAYTKQVEEVGVINTLYALSYLP | soluble |
| MEANMPKRKEPGRSLRIKVISMGNAEVGKSCIIKRYCEKRFVSKYLATIGIDYGVTKVHVRDREIKVNIFDMAGHPFFYEVRNEFYKDTQGVILVYDVGQKDSFDALDAWLAEMKQELGPHGNMENIIFVVCANKIDCTKHRCVDESEGRLWAESKGFLYFETSAQTGEGINEMFQTFYISIVDLCENGGKRPTTNSSASFTKEQADAIRRIRNSKDSWDMLGVKPGASRDEVNKAYRKLAVLLHPDKCVAPGSEDAFKAVVNARTALLKNIK | soluble |
| MNTINRNYYPVSGIPAQDAPAQTDQLPPQGQGIKPGHNSNLIDFGLTQQANGPHSSLNTLGSRVQPTDTNTSSNMPGGNGEQVLNKLVQAIRNILNNLLSLLEGNLHNGSGPAQPQRDQTPTLAQSPSSASPSSSPPSTPQGNAEKPFVVQNDHPSEKPVSLQKNTEPTSAAPSQTAPRTTERSSATPDKTPARPDAVNPAVVHDLALPKTSTDTTAKPDNTVNAAKTATPAAHGQGADMSGIMGFAKEANTTGGNGGEVVTVNTVADLKKYMEDDKARTVKLGANLSADSKVTINFGANKTLLGTDKGNSLHNIYLASGKTASNDIFQNLNFDHDSRYRENGDMQMFISSGQKYWIDHNTYSGTKDQNAKGLDKLLYVGGTADNVSLTNSKFQNNEYGVILGQPDDSAQAKAEYKGYPRMTIANNVFSNLDVRAPGLMRHGQFDVLNNSIDNFHLGFTATGDATILSQANYFAKGVDVSDKASNSGVLDDYGDAHFKDIGSNVSFTQKSAVTAWTPSYQRDIKTAEAARAYDQANAGAKTVS | not soluble |
| INYKQLQLQERTNIRKCQELLEQLNGKINLTYRADFKIPMEMTEKMQKSYTAFAIQEMLQNVFLVFRNNFSSTGWNETIVVRLLDELHQQTVFLKTVLEEKQEERLTWEMSSTALHLKSYYWRVQRYLKLMKYNSYAWMVVRAEIFRNFLIIRRLTRNFQN | soluble |
| LEAPRDLEAKEVTPRTALLTWTEPPVRPAGYLLSFHTPGGQTQEILLPGGITSHQLLGLFPSTSYNARLQAMWGQSLLPPVSTSFTTGGLRI | soluble |
| MSLHISVMGELDSKADVDRLLESIDENCDCEIHLTFLDANVVPREIVEKIVKLKEHNKCKIFVLKAYLYSYFLSLGISCFLVKKKSILNKDFESKEKLSSQTFEPEKVEKFLWDIYDKYGFDFTEYRKDSIIRRIKISMLRYCMTNFDEFSHLALTDQDVFEQLFLDFSINTTNFFRDPEVFMFLREKVLLFLDSYSHIRIWCVGCSNGKEPYSLAIILKELGMLHKVQIYATDINPYVIEEAKNGLYSVSTINTDIANYKKSGGSKNFTDYFEVNGNYMKVKDDFKDNILFFQHSVIEKGILNEFQMILCRNVMIYFDIPLQKKVLRHFYNSLDSGGFLVMGKSEGMLLNNGYEYFADYNEKYSVYRRKEGHHHHHH | soluble |
| GSHMASADLVSSCKDKLAYFRIKELKDILNQLGLPKQGKKQDLIDRVLALLTDEQGQRHHGWGRKNSLTKEAVAKIVDDTYRKMQIQCAPDLATRSHSGSDFSFRPIEEA | soluble |
| MIVLGLEGTAHTISCGIIDESRILAMESSMYRPKTGGIRPLDAAVHHSEVIDTVISRALEKAKISIHDIDLIGFSMGPGLAPSLRVTATAARTISVLTGKPIIGVNHPLGHIEIGRRVTGAIDPVMLYVSGGNTQVIAHVNGRYRVLGETLDIGIGNMIDKFAREAGIPFPGGPEIEKLAMKGTKLLDLPYSVKGMDTAFSGILTAALQYLKTGQAIEDISYSIQETAFAMLVEVLERALYVSGKDEILMAGGVALNRRLRDMVTNMAREAGIRSYLTDREYCMDNGIMIAQAALLMYKSGVRMSVEETAVNPRFRIDEVDAPWITDASRKDYGKAGAESRIEEVSFHGRPAIRKVRISKSYRNSDLDKKIRYERMRNEFTILRKLKEAGVNSPVVYDFDPFSMSITMQKIPGRMMSAELNEGRTDFLNELGIMIAKMHRAGIAHGDLTVNNIIVNDSVFIIDPSMGKVNAEIEDMAVDIYALEDSIKGLGLDSGSVIGQMLKSYRNNFNLADDVLETVSAIRRRHRYV | soluble |
| MNKEEQVMMSLRELFNKMAWLNKLKMEDSLKGYKPSEVHYIECIGKNVDSNVTKLAKSLYMTRGAISKMTKKLIEKNIVESYQKADNKKEIYFRLTEKGHEIYKLHENLHKEFQERDKVVFEQVTDEQFESMLSFIEKYSKHLDSEIKKLGIDTKLE | not soluble |
| MSLYENNVKDTKDFYNDIGHISWSVAPSQHYHVGIFELEKDSMEDAQNRTVEYMARKVAASDLDVLLDIGCGSGLTAVQISKKENCKIVGINISEKQLAIGKKLISKEKINSRVKLMNMDAHQLNFKSGMFDGAYALESIMHMNREKVLSEVHRVLKNGAPFSLCDWYVKKSLTPVEKRFLETITLGKYITKEQYFSLYQTQNFMDIEIEEWSNKILPTYKYWTTITDEMKEKLPDHLLYVIEENSKVLSDIAIEKLGYLQVNGIKREGHHHHHH | soluble |
| DGFRIAFISDLHYKSLFKEKGLESLVRLLNAQHADVLLMGGDYQEGCQYVPELFAALAKVKTPMGTYGVMGNNDYERCHDEIIREMQRYGMRPLEHQIDTLRRDGAQIILAGVRNPFDLANNGVSPTLSLSPSDFVILLVHTPDYAEDVSVANSDLVLAGHTHGGQVRILGYAPIIPSHYGSRF | not soluble |
| MIRQTPLEKRYDKLGPHIVTALKKRYFDAYYCKTRNEALQQILDLIPQNHVVSWGGSETLKEMGVQTAVREKGFKVIDRDLAKTPEERTEIMRQALLCDTFLMSSNAISEDGQLFNIDGNGNRVAAMIFGPKNVIVVAGMNKIVKNIDDAIQRTRTVASPAVVQRFQDVNTPCYINGSCIDCTSPESICAYMVTTRISRPAKKIKVILVGENLGLLEHHHHHH | soluble |
| MGSDKIHHHHHHLEYVIEMLNIRKEFGSFVANDNITLQLRKGEIHALLGENGAGKSTLMNVLFGLYQPEAGEIRVRGEKVNITSPNVANDLGIGMVHQHFMLVQNFTVTENIILGAEPKAGLKIDRAAAREKVRQISEQYGLAVDPDAKIEDISVGMQQRVEILKTLYRGADILIFDEPSAVLTPQEIKELIQIMNRLIAEGKSIILITHKLKEIMEVADRCTTIRRGKYIGTVDIDETMTQSRLAEMMVGREVNFNAEYSKATPQELVLDIKDLVVKDSRGIKAVDGLNLDIRAGEIVGIAGIDGNGQTELIEAITGLRKADSGEIFLNNKSIKNLKPRKVTEAGVGHIPQDRHKHGLVLDYSIGHNMVLQTYYQKPYSKAGIMNYGQVMDKAKTLIEKFDVRTPSPETFARALSGGNQQKAIIAREVDRSPDLLIAAQPTRGLDVGAIEFIHEQLVLEREKGRAVLLISFELEEILQVSDRIAVLYEGRTVAFLDPKETNEIELGFLMAGGKKEEVGRS | not soluble |
| MSLRKEPYLLVFGASVVDVFGFSKASYRPYNSTPGHVKISFGGVCRNIAENMARVGVNTNFMSILGNDEHGKSIVEHSKKIGYHMDDSMVIEGGSTPTYLAILDENGEMVSAIADMKSIGAMNTDFIDSKREIFENAEYTVLDSDNPEIMEYLLKNFKDKTNFILDPVSAEKASWVKHLIKDFHTIKPNRHEAEILAGFPITDTDDLIKASNYFLGLGIKKVFISLDADGIFYNDGVSCGKIKATEVDVKNVTGAGDSFVAGLGYGYMNKMPIEDIVKFAMTMSNITISHEETIHPDMALDTVLAKLEKTTWEEEKYDLNEGHHHHHH | soluble |
| MDKLGENLNKALNKLKAAAFVDKKLIKEVIKDIQRALIQADVNVKLVLKMSKEIERRALEEKTPKGLSKKEHIIKIVYEELVKLLGEEAKKLELNPKKQNVILLVGIQGSGKTTTAAKLARYIQKRGLKPALIAADTYRPAAYEQLKQLAEKIHVPIYGDETRTKSPVDIVKEGMEKFKKADVLIIDTAGRHKEEKGLLEEMKQIKEITNPDEIILVIDGTIGQQAGIQAKAFKEAVGEIGSIIVTKLDGSAKGGGALSAVAETKAPIKFIGIGEGIDDLEPFDPKKFISRLLGMGDLESLLEKAEDMVDEKTEESIDAIMRGKFTLNELMTQLEAIENMGSMKKILSMIPGFGGAMPKELSHLTEAKIKKYKVIISSMTKEERENPKIIKASRIRRIARGSGTTENDVREVLRYYETTKNAIDKLHHHHHH | soluble |
| MSLIFLDYDGTLVPIIMNPEESYADAGLLSLISDLKERFDTYIVTGRSPEEISRFLPLDINMICYHGACSKINGQIVYNNGSDRFLGVFDRIYEDTRSWVSDFPGLRIYRKNLAVLYHLGLMGADMKPKLRSRIEEIARIFGVETYYGKMIIELRVPGVNKGSAIRSVRGERPAIIAGDDATDEAAFEANDDALTIKVGEGETHAKFHVADYIEMRKILKFIEMLGVQKKQEGHHHHHH | soluble |
| MSLSHFDSQAPTWDENPKRSLMINAIAEALRSHLPLREDFRVMDYGCGTGELSLAILPWVGYVEGIDTSKGMIDRFSQKIQERNLPNIKAKFMRAGEALEGEFDLVVCNMVLHHIPDPLLYIRQFESSIRPGGHLAIIDLDKEDGSFHPQGTPGVFHQGFSYEEIRAWLDYCYLEERLHHPSLHLIQKNEREYPLTLTLAQKPHEGHHHHHH | soluble |
| MGSDKIHHHHHHMMQPVINAPEIATAREQQLFNGKNFHVFIYNKTESISGLHQHDYYEFTLVLTGRYFQEINGKRVLLERGDFVFIPLGSHHQSFYEFGATRILNVGISKRFFEQHYLPLLPYCFVASQVYRTNNAFLTYVETVISSLNFRETGLEEFVEMVTFYVINRLRHYREEQVIDDVPQWLKSTVEKMHDKEQFSESALENMVALSAKSQEYLTRATQRYYGKTPMQIINEIRINFAKKQLEMTNYSVTDIAFEAGYSSPSLFIKTFKKLTSFTPKSYRKKLTEFNQ | not soluble |
| AQAFVNSKIQPGKVVVFIKPTCPFCRKTQELLSQLPFKEGLLEFVDITATSDTNEIQDYLQQLTGARTVPRVFIGKECIGGCTDLESMHKRGELLTRLQQVGAVK | soluble |
| MGSDKIHHHHHHMKQLLAYCLSIILCVSFTGCMENYLDLYPEDKITSASFPENESDIKLLLNGVYAQLREKEVYNQGLFGFGITDGATPNAFNWGTDEVFNKLGAGRLSSSDGGVVTYRWKRCYEIISRANYLLACMDLVDLSEEAKAKYSGETHFLRGLAYSVLAETYGGVPIILTDISTEEARSLKRASLEETWQQALDDYEVAITNLGVDAPEPGRATKGAALGMKMRAYLYQGKYKEVLSCVEQIDALKKYGLFHSYEGLFDPANENNKEVLFDIQYIEGENSQGSYIDQYCGTGTGSWTRGSRYVPTDDLVAAYETIDGSPVDPENPYENRDPRLGFTAVLPGSYFLGYRFPNYLYPGGAFNHAGNRLKHLSTRKYRIQDESKLPPSGQSYINDIILRYADVLLSKAEAIIETNGNVADAIAILNRIRTERDDVKISLLPTSMSREEAREKVRHERRIELALEGRYWSDVKRWKIGKELYPMIIKDHEGSVIETKFPNGYLEYYDLLPIPDSERSLNPNLDQNPGW | not soluble |
